Laboratory results as given in patent US20180154038A1.
Where no end group is shown, it is not given here.

Molecular target: human fibrinogen (human) (UniProt P02671)
Assay: cell-based or functional assay

Sequence of human fibrinogen (human) (P02671 20-629 limits assumed, chain 1 of 3): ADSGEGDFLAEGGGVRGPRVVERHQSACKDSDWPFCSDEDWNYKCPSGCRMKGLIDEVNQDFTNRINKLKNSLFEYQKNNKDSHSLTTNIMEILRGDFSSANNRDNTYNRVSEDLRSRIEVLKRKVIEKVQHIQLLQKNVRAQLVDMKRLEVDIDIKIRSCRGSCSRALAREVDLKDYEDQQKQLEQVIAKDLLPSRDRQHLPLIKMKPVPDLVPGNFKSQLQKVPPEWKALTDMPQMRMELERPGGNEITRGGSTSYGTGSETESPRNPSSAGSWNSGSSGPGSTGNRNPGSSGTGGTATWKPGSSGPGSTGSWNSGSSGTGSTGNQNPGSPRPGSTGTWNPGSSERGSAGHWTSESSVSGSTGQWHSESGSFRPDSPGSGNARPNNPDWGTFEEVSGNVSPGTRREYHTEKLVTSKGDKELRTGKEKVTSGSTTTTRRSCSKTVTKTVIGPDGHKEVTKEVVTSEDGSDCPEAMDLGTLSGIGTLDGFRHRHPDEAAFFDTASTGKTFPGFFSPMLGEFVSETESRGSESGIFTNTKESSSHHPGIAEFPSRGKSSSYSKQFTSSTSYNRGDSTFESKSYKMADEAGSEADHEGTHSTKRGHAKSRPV
Sequence of human fibrinogen (human) (P02675 31-491 limits assumed, chain 2 of 3, further chain): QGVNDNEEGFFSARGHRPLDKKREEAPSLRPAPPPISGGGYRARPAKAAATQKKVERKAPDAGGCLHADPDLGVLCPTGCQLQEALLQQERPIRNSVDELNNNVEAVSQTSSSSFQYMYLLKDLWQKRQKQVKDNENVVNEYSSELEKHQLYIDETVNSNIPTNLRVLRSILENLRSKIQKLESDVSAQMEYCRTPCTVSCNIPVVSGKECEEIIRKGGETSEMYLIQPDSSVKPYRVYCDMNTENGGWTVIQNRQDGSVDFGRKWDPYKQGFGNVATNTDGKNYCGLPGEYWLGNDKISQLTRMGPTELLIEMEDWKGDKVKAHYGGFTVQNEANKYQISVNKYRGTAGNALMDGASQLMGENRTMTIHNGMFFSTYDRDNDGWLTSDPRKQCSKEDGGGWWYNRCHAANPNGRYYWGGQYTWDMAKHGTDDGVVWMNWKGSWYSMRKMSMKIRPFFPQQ
Sequence of human fibrinogen (human) (P02679 other isoform, or with tags, fused parts or gaps limits assumed, chain 3 of 3, further chain): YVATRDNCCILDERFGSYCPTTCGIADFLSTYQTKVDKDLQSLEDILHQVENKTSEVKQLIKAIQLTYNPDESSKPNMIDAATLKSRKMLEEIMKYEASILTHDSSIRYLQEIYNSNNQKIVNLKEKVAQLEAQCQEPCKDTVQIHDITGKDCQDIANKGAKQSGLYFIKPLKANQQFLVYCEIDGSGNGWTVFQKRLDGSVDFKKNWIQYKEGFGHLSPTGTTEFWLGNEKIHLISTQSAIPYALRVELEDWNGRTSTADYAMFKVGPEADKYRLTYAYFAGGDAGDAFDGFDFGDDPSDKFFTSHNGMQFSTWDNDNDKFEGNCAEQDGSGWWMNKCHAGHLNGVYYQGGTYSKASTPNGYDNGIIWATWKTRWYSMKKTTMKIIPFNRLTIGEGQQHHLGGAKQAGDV

- Clotting activity (seconds) in human fibrinogen @ c = 3 mg/ml; HXP12 extracted from HA paste, 0.06 mg/ml; after sterilization, accelerated aging @ 40 C, 2 weeks: 3.6 s
- Clotting activity (seconds) in human fibrinogen @ c = 3 mg/ml; HXP12 extracted from HA paste, 0.06 mg/ml; after sterilization, accelerated aging @ 40 C, 4 weeks: 5.4 s
- Clotting activity (seconds) in human fibrinogen @ c = 3 mg/ml; HXP12 extracted from HA paste, 0.06 mg/ml; autoclaved @ 121 C: 3.3 s
- Clotting activity (seconds) in human fibrinogen @ c = 3 mg/ml; HXP12 extracted from HA paste, 0.06 mg/ml; non autoclaved: 1 s
- Clotting activity (seconds) in human fibrinogen; HXP12 0.05 mg/ml in saline; after sterilization, storage @ 40 C, 4 wks: 0.9 s
- Clotting activity (seconds) in human fibrinogen; HXP12 0.05 mg/ml in saline; after sterilization, storage @ 40 C, 7 wks: 1.2 s
- Clotting activity (seconds) in human fibrinogen; HXP12 0.05 mg/ml in saline; after sterilization, storage @ 40 C, 13 wks: 1.1 s
- Clotting activity (seconds) in human fibrinogen; HXP12 0.05 mg/ml in saline; after sterilization, storage @ 40 C, 27 wks: 1.1 s
- Clotting activity (seconds) in human fibrinogen; HXP12 0.05 mg/ml in saline; autoclaved @ 121 C: 1 s
- Clotting activity (seconds) in human fibrinogen; HXP12 0.05 mg/ml in saline; non autoclaved: 1.1 s
- Clotting activity (seconds) in human plasma; HXP12 extracted from HA paste, 0.1 mg/ml; after sterilization, accelerated aging @ 80 C, 4 hours: 2.8 s
- Clotting activity (seconds) in human plasma; HXP12 extracted from HA paste, 0.1 mg/ml; after sterilization, accelerated aging @ 80 C, 16 hours: 4.8 s
- Clotting activity (seconds) in human plasma; HXP12 extracted from HA paste, 0.1 mg/ml; autoclaved @ 121 C: 2.6 s
- Clotting activity (seconds) in human plasma; HXP12 extracted from HA paste, 0.1 mg/ml; non autoclaved: 2 s
- clotting time in human plasma, dendrimer 0.25 mg/ml, 37 C: < 1 s
B1: Peptide Dendrimer No. 12 (peptide, from a related filing, part only)
peptide: GPRPG
chain: KKKKK
modifications: not fully specified; also: five-arm peptide dendrimer, arms attached by C-terminus to branched core
